We go through 15 sequences from the DeepSol protein solubility set.

The nature of this series: soluble on expression in E. coli; label from the status in PepcDB or PDB records.
On to “MSLNRPNHVAPKTLLETLPRDRAESYLNHCSGNSASASALYLWEMDMAAALHEVLSMTEVAVRGAIDAQLQSFAKSHGVASGEWIKERDSLPHLSELRFANGRPLFDHGSLRRMSRKQEGGRTRMHPRSQASTSHGDLIAQVMFGTWGAMLPDKNDSRPQSVQDAINGLWREALQEAFPQYREGHHHHHH”, for which the “soluble on expression in E. coli” value is on record as “soluble”.

With “MKVFEGKPRINSPHITGNYPSTPFIFYIPTSGQRPMQWSAEKLPEGLELDSKTGIISGVMTSKGDYTVTLKAENALGVSVKQLEHHHHHH”, the “soluble on expression in E. coli” value was “not soluble”.

With “MRLPALFLAHGSPMLAIEDNAYTAFLGKLGEGIRPQAVVIFTAHWMTRQPTVSAVEGTYDMIYDFSGFPRELYEVVYLARGSVEWAERVRERLAGVAEVAVDSTRGLDHGSWVLLHRLFPNADIPVVQASVLPWWTPKQLFQLGEALRPLRDEGLMVIGSGGTVHNLMALRWEGHAEADAWAMAFDDWLLSRSAAHSEEVFDYENKAPYAKQAVPTPEHLAPYWIAYGAGDRDQAPRVLFREYQYGSLSLMAVTF”, the “soluble on expression in E. coli” value is on record as “not soluble”.

Turning to “MGSDKIHHHHHHCDDFLDSFPQDTVTNENFWKSKEDADKVLVDIYASLLPKDAIFFDEAMSDNAYLVWDWWGGAQQVANGSYTTSGEIPTNRWNGSYEVIRKCWFLLEGIEKIEDISEQDKNKIIGETYFMLAYNYYVLTSYFGDVPLVTKTLAIPESKQLVRTPKAEVVDYAINKLKEAAVMLEGLSQEKGRVTADACRFLIARMYLYNGDYSNVLETVKLLEGKYQLYREGDTPYEDLFSGVAENSCEVILSVVCDKRVGEIYTSHGGNGIMLLKGITGEDPYRGVTPSGSLVDAYPMADGRLIHEAGSSYDPKKPYEGRDPRFYQSIVYPTGQIKYLDVETGTVKERLYDPEDPTTVPEHQYNYSQPSATGYMWNKYIDYSVYAMNSVWDCTNDIIVFRYADVLLMKAEALLQTKGESAKEEVCNLIDQLRDRCSCGRVHRENYNSKDELMELLKNERRIELANEGLRYMDLIRWKDAEKNTIVTGVGLTGQMYGAYMRKDGVGKDDKTVDVDNTPRRYIETRYFNASKGYLFPIPQKERDLNPNLTQNPNW”, the “soluble on expression in E. coli” value was “not soluble”.

Turning to “MKKKQVMLALTAAAGLGLTALHSAPAAKAAPLHDISVSMPSSDTYIIKAGKLNVRTEPNHEGDILGTVSSEQKVKVDRFVNADWAQIHFKGKKAYISTHFLMKTASQAKTTKQTAFYTPTPENGKAKQLSSGTEVTILGWGFSENGGFDFTWAFVDYGGVKGYIHTKDLQMRLEHHHHHH”, the “soluble on expression in E. coli” value is listed as “soluble”.

With “MGSDKIHHHHHHMKPGFVDPVFDAQAVFRAALLATAYPGRVVPLDRTLTAPRPFSSATAALCLSLMDFETPAWLDNSLDCGELTAWLRFHCSLPLTETAGEARFAIVSDPANLPRLCELHPGDAEYPDRSTTLIIQVPSFTDGPTTTWTGPGVNGSIPVGIAGLPFWFWADWDLNSELYPRGIDVVFTSGNAVIGLPRTIKVEA”, the “soluble on expression in E. coli” value is “not soluble”.

“MGSDKIHHHHHHMTRSAEPRVLQFCHGYDGPFLDCARQYASLFAGTPYKVTTVFLTGRSDPEVAARCASDEVLFLEYGSRDIRGLKLKAIRDLREIARSRDFRFCIAHRFKPIWIASLATRLPIVGVHHAFGDYQRLSRKVFAGLMSKRLSLLAVSDAVRDDIRRCLPKWPAERIETLYNRIDVAALQAEQVERLSARRQLRLPDEAWVVGNVGRLHPDKDQATLLRGFAAALPRLPQNSLLAILGSGRLEEQLKDLACELGIGERVLFLGQVEEARRYFKAFDAFALSSDHEPFGMVLLEAMVAGVPLIATACGGAREVVEGVGILFPLGDETALAEGLTHLAALDRRQREACARLMLERLETRFSDAAVRREFWRLPTIAGFASESAC”: the “soluble on expression in E. coli” value is recorded as “not soluble”.

Consider “MPLHHLTRFPRLEFIGAPTPLEYLPRLSDYLGREIYIKRDDVTPIAMGGNKLRKLEFLVADALREGADTLITAGAIQSNHVRQTAAVAAKLGLHCVALLENPIGTTAENYLTNGNRLLLDLFNTQIEMCDALTDPDAQLQTLATRIEAQGFRPYVIPVGGSSALGAMGYVESALEIAQQCEEVVGLSSVVVASGSAGTHAGLAVGLEHLMPDVELIGVTVSRSVAEQKPKVIALQQAIAGQLALTATADIHLWDDYFAPGYGVPNDAGMEAVKLLASLEGVLLDPVYTGKAMAGLIDGISQKRFNDDGPILFIHTGGAPALFAYHPHV”, for which the “soluble on expression in E. coli” value is recorded as “not soluble”.

For the sequence “SGANISGGSPEFDRNDDVYSRKLRLVDLPENCVALIMTRLDPPEICRLARLNRMSRRASSADFIWESKLPANYRVIAHKVFDEITLTKLIKKDLYAKLSQPNLFDDGTKELWIDKNTGRLCLSISSKALRITGIDDRRYWSHIPTDESRFQSAAYVQQIWWFEVGGEFEIQFPSGTYSLFFRIQLGKTSKRLGRRICNSEHIHGWDIKPVRFQLATSDNQQAVSLCYLNNNPGSWSHYHVGDFKVTNPDVSTGIKFSMTQIDCTHTKGGLCIDSVLILPKECAKEVIGSQ”, the “soluble on expression in E. coli” value was “soluble”.

As for “SKRFVIGIGGVTNGGKTTLAKSLQKHLPNCSVISQDDFFKPESEIDIDENGFLQYDVLEALNMEKMMSAVSCWMENPGSSAGPAALESAQGVPILIIEGFLLFNYKPLDTIWNRSYFLTVPYEECKRRRSTRVYEPPDPPGYFDGHVWPMYLKHRQEMSSITWDIVYLDGTRSEEDLFSQVYEDVKQELEKQNGL”, the “soluble on expression in E. coli” value is recorded as “soluble”.

“MNRLAHHQGIYKFFFTLGLTLQLSKPVIKHLIHIVDALTTKGFSGTLTDIHHWSFHPNHRTTLSHFFTKSPWNEERLLGKLQEWILRRIERKNQPLFVSIDDTICQKTKPSSRATHAIEGCDWHYSHKDHQSVWGHSLVWLMVHTFTQAFPFAFRLYDKKAGRSKIDLAIEMLSSIKVKLTQPVYVLMDSWYPSKTLIEACLKQGFHVIAMLKTNRILYPKGIAIQAKQFARYIEPKDTRLVTVGQERYRVYRYEGAIHGLDDAVVLLAWKADQPMTPEHLHCVLSTDRGLGDEDILRYYAQRWTIECFFRQAKDQLKLDGYRVRHVRAVKRYWAVVLLASVYSIAESRQTLSAGLELLRSRKDHSVVEFIYDAAKQGIPIDVIKKQLRIA”: the “soluble on expression in E. coli” value is given as “not soluble”.

On to “MAHDWEKVLLSPDTPAESALRVLDDSGLRLVLVVDEQRRLLGTLTDGDVRRALLRHVNFMTAAVADIMHREPRVALASASREQLRHLMEQHSLLHIPLLDHDDRVVGLETYQEVLQRPRRDNWVFLMAGGFGKRLRPLTDNCPKPMLLVGGKPMLQTILEGFIAAGFHRFYISVHYLPETIKNYFGDGSKWGVTIVYIEEDQPLGTGGALGLLPGTDDLPIIMMNGDILTRLDFNALLDFHEKHAADLTLCVREYDVQIPFGVVEGNDVTVTSIVEKPKHRFFVNAGIYVVTPQAIARVLPSMRVDMPDLIKQIIADQRNVSMFPIREYWLDIGRPEDFDVAQTSIAQLEHHHHHH”, for which the “soluble on expression in E. coli” value is listed as “not soluble”.

With “MSAKNVLKMANRNSANKRDILGDLLSLSSNKTVNLNEMAHGQGKRKMASIDGQKENPKRIKMSQHMTAKEVKIPLLRTPDEEARKIEKLRREARIKRSKEVHYDAAEQQQIMMNYEWTVQMEEQEKLRKKVEKKH”, the “soluble on expression in E. coli” value is “not soluble”.

“MKIAFLRPGKIGTPANHVYALLDYLREKGAEIREYDLKERDVNDVVKEIEEWKPLFLMDVNATGVIVAERDGKKHILADILGIVHVSVFFEDPLLFFPAFEGVEKPQNYIAFITELKHTDSLTALGIQNISYISPFVDLKQFPESEGEKDIEIAFVGPVVDPQIILNSVSQNYPQEIMPFFIETGEFMFRNPEVHILTAFNYVFGLFNPQMQEQFNKWREQNPSAFMRFLNDITAYTTMRRRMYLLHFLDGMDVKILGDYQGNLFENHEAIKVSSYEQLLKYYSRSNITVYVSPQTYPTGLSVIPLEILYMGSLPLIDFKGAIPGFLKPGEEIETFAPLDRADLEEKIVFYIEENREGINEIVQRGKKAVQERFTVKDRGEFVYNVLSDVKRQYEAAQKGQVN”: the “soluble on expression in E. coli” value is listed as “not soluble”.

Turning to “RSSLDLQLKNARNLAGLIIHDIDGYMMKGDSSEVDRFISAVKSKNFIMDLRVFDEQAKEVSPTPSQTPNAKIQQAIAAGRTLEFKETLDGKRTLSLVLPFPNEQRCQSCHDAGAAYLGGLLVTTSIEEGYEGARH”, the “soluble on expression in E. coli” value is on record as “soluble”.
